Drawing on PMC11931385, “Structural and functional analysis of cancer-associated missense variants in the retinoblastoma protein pocket domain” (The Journal of Biological Chemistry, 2025), this text covers Kd for 2 molecules.

Changes are numbered by the printed parent chain. In names and notes the source's numbering stands. No end group written: not given here. TMR = tetramethyl rhodamine dye

Experiment in all cases: fluorescence polarisation; 25 °C; unlabeled Rb^P titrated against 1.5 nM TMR-E2F1^TD or 7.5 nM TMR-E7^LxCxE; 25 mM Tris pH 8.0, 200 mM NaCl, 1 mM DTT, 0.1% Tween-20; 2 min incubation; quadratic fit; apparent Kd for the variants, Kd for WT
What all share (details): both partners purified
On the technique in general: Fluorescence polarisation rises when a labelled molecule tumbles more slowly, as on binding a larger partner.

One assay concerns the target T1, Rb^P A488V (human, UniProt P06400 380-788, A488V).
T1 construct: also called variant 14
T1 sequence (looked up): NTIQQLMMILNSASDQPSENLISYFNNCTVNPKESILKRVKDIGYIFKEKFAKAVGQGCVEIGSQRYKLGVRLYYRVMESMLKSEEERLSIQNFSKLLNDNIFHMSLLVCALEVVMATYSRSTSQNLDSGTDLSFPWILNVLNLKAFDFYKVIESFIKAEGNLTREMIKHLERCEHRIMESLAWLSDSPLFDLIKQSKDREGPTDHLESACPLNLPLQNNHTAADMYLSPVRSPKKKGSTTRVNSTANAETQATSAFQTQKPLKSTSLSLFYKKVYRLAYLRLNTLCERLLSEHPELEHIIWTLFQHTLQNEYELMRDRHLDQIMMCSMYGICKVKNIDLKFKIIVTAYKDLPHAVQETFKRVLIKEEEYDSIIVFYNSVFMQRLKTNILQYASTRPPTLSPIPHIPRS

In the next assay the target is T2, Rb^P D604G (human, UniProt P06400 380-788, D604G).
T2 construct: also called variant 36
T2 sequence (looked up): T1 sequence (looked up) with V109A, D225G

The next assay concerns the target T3, Rb^P Q444R (human, UniProt P06400 380-788, Q444R).
T3 construct: also called variant 4
T3 sequence (looked up): T1 sequence (looked up) with Q65R, V109A

The target in a further assay is T4, Rb^P S671F (human, UniProt P06400 380-788, S671F).
T4 construct: also called variant 53
T4 sequence (looked up): T1 sequence (looked up) with V109A, S292F

The next assay deals with T5, Rb^P D697E (human, UniProt P06400 380-788, D697E).
T5 construct: also called variant 62
T5 sequence (looked up): T1 sequence (looked up) with V109A, D318E

B1: TMR-E2F1^TD, peptide of the E2F1 transactivation domain (peptide)
peptide: {TMR}-GEGIRDLFDCDFGDLTPLD
notes: also called E2F^TD; source: synthetic peptide, bought: GenScript
As for B1, the Kd with Rb^P A488V was 53 nM; in the assay with Rb^P D604G, 27 nM; with Rb^P Q444R it was 15 nM; with Rb^P S671F, 24 nM; with Rb^P D697E, 29 nM.

B2: TMR-E7^LxCxE, LxCxE peptide of the E7 oncoprotein from HPV (peptide)
peptide: DLYCYEQLN
modifications: also: TMR label, position not given here
notes: source: synthetic peptide, bought: GenScript
Consider B2, for which the Kd amounted to 9 nM with Rb^P A488V; 13 nM in the assay with Rb^P D604G; 7 nM with Rb^P Q444R; 9 nM with Rb^P S671F; 9 nM with Rb^P D697E.
